Assay [1] has as its target T1, Mb重组蛋白 (recombinant myoglobin) (UniProt P02144).
T1 sequence (looked up): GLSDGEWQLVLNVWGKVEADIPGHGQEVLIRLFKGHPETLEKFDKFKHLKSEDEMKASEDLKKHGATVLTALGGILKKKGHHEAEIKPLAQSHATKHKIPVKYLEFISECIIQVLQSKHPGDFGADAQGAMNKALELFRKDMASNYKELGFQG
As to the kind of experiment: indirect ELISA; Mb coated 2 ug/mL; hybridoma supernatant 1/50. For orientation: ELISA stands for enzyme-linked immunosorbent assay.

The target of assay [2] is T1, Mb重组蛋白 (recombinant myoglobin). The description is as above. The source holds these as a separate data set.
The target is the same in assay [3]. As to the kind of experiment: indirect ELISA; Mb coated 2 ug/mL; hybridoma supernatant 1/100.
For assay [4] the target is unchanged. As to the kind of experiment: indirect ELISA; Mb coated 2 ug/mL; hybridoma supernatant 1/200.
For assay [5] the target is unchanged. The experiment in a line: indirect ELISA; Mb coated 2 ug/mL; hybridoma supernatant 1/400.

B1: 鼠单克隆抗体 9B2 (antibody, part only; not given: light chain variable domain, V domains shown, part only)
VH: QVQLQQSGAALVRPGTSVKVSCKASGYAFTNYLIEWVKQRPGQGLEWIGVINPGSGGTDYNEKFKGKATLTADKSSSTAYMQLSSLTSDDSAVYFCARSSLYGSSRMDYWGQETSVTVSS
On to B1, for which the OD450 in assay [1] was found to be 1.7 OD; in assay [2], 1.69 OD; in assay [3], 1.63 OD; in assay [4], 1.46 OD; in assay [5] it was 1.27 OD.

B2: 鼠单克隆抗体 1E6 (antibody, V domains shown)
VH: EVQLQQSGAELVKPGASVKLSCTTSGFNIKDTYIHWVRQRPEQGLEWIGNIDPANGNTKYDPEFQGKATITADTSSNTAYLHLSSLTSEDTAVYYCARVDGSRDFDYWGQGTTLTVSS
VL: DIVMTQAAPSVTVTPGESVSISCRSSKSLLYSNGNTYLYWFLQRPGQSPQLLIYRMSNLASGVPDRFSGSGSGTAFTLRISRVEAEDVGVYYCMQHLEYPLTFGGGTKLELK
B2: the OD450 amounted to 1.73 OD in assay [1]; 1.69 OD in assay [2]; 1.33 OD in assay [3]; 1.18 OD in assay [4]; 0.857 OD in assay [5].

Values taken from patent CN113234156A.
